The supplement of paper PMC9170038

Experiments:
[1] = tested on: K4 kissing-loop RNA reporter; assay: apparent KD of K4 kissing-loop reporter; higher = weaker reporter binding; conditions: Eterna round: R107;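 further: bound reporter read as fluorescence of individual clusters on recovered sequencing chips by microscopy, with normalized cluster intensities fitted with a binding model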
Method: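 RNA-MaP round R107: designed RNA switches with theophylline, tryptophan, arginine or FMN aptamers are transcribed on-chip within common flanks. They are titrated with a labelled K4 kissing-loop RNA reporter in RNA-MaP buffer (100 mM Tris pH 7.5, 80 mM KCl, 4 mM MgCl2), without ligand or with the indicated ligand. Median apparent KD per design.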

[2] = tested on: MS2 coat protein; assay: apparent KD of MS2 coat protein; designed switch direction (-1 OFF switch, 1 ON switch): -1; higher = weaker reporter binding
Summary of the method: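 Designed RNA switches with common flanks were transcribed on Illumina chips by stalled E. coli RNA polymerase and titrated with SNAP-549-labelled MS2 coat protein, from 0.7 or 1.5 nM doubling to 3 µM, in Tris-HCl pH 7.5 buffer with KCl, MgCl2, BSA, DTT, tRNA and Tween-20. Steps lasted 0.8–1.5 h (lowest) to 10–20 min (highest). Titrations ran without input, with 200 uM small-molecule ligand, or with an oligonucleotide input. Normalised cluster fluorescence was curve-fitted, and apparent KD is the per-design median over clusters.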

[3] = input ligand: theophylline 20 uM
[4] = input ligand: tryptophan 2.4 mM
[5] = input ligand: microRNA oligo, concentration not stated
[6] = Eterna round: R95, input ligand: FMN 200 uM
[7] = Eterna round: R95, input ligand: microRNA oligo, concentration not stated
[8] = Eterna round: R95, input ligand: none

Sequence | apparent KD of K4 kissing-loop reporter ([1]; input ligand: FMN 200 uM) [nM] | apparent KD of K4 kissing-loop reporter ([1]; input ligand: arginine 13.2 mM) [nM] | apparent KD of K4 kissing-loop reporter ([1]; input ligand: none) [nM] | apparent KD of K4 kissing-loop reporter [1, 3] [nM] | apparent KD of K4 kissing-loop reporter [1, 4] [nM] | apparent KD of MS2 coat protein ([2]; input ligand: FMN 200 uM) [nM] | apparent KD of MS2 coat protein ([2]; input ligand: none) [nM] | apparent KD of MS2 coat protein [2, 7] [nM] | also measured
AAAUUUAUAUUAGAUACCAGCAUUUUGAAUGUUUAUUAUGACAAGAGUGAUGUUCUUGUAUGCCCUUGGCAGCUGGUAUGGGUUU [KL-XTheo-B24] | 123 | 115 | 136 | 120 | 125 | – | – | – | –
AAAUUUAUAUUAGAUACCAGUUUAAUGGAUGUAAAUUAUGACAUGAGUGAUGUUCAUGUAAGCCCUUGGCAGCUGGUAUGGGUUU [KL-XTheo-B21] | 127 | 110 | 121 | 116 | 115 | – | – | – | –
AAAUUUAUAUUAGAUACCAGUUUAUUGGAUGUAAAUUAUGACAUGAGUGAUGUUCAUGUAAGCCCUUGGCAGCUGGUAUGGGUUU [KL-XTheo-B22] | 132 | 119 | 127 | 124 | 114 | – | – | – | –
AACCUACGAUCACAAUAGUGAUUGUAGGACUAGGAUAUGCUGAAAAGCAGAAGGAGUGAUGUUCCGUCAUGAAUAACAUGACAAA [FmnAX 3 #OpenEnded #K4Late #CoaxialStacking] | 610 | 465 | 455 | 497 | 357 | – | – | – | –
AACGUUUUGAGAAGGAGCGCGUUAAGCAGUGAUGUUGCUUUAUUAUAUUUACUACAUAUUUCGCAGGUAGGUCGCUCAAUACGUA [JR_Nu_SSArginiB_Sub025] | 154 | 153 | 148 | 152 | 123 | – | – | – | –
AACUGUCAAGGACAACAUUACUGAGGUGAUACCAGGUUUGAGAGGAUCCCUUGGCAGCACCAACUUGCAGUGAUGUUGCAAGUAA [BrourdMod 15 - Jieux - Exclusion - Theophylline A] | 243 | 211 | 240 | 254 | 243 | – | – | – | –
AAGAAGAAUGGAAGGAGCGAGCAGAAAUAACCAGUGAUGUUGGAAAGCCUUAUUGCUUAAGCUCAGGUAGGUCGCCAAGAAAAGA [Mostly trial and error] | 158 | 181 | 205 | 226 | 171 | – | – | – | –
UUUUGGCAUGUAGGAUAUGGGUCCGAUUAGGAUUUAGAAGGACAUGAGGAUCACCCAUGUGCAUUUAAUUGGUCUUUACUUUUU [EXclNG1-LROPPY13] (Eterna round: R96, puzzle: Exclusion NG 1) | – | – | – | – | – | 115 | 72.9 | – | apparent KD of MS2 coat protein [2, 5]: 61.2 nM
UUUUUACAUGAGGAUCACCCAUGUGAGGAUAUGGAGCGCGACCGCGCGGUCGCGUACACCAGAAGGCGCAGGAU [1st #76] (Eterna round: R97, puzzle: Exclusion 1) | – | – | – | – | – | 89.7 | 46.6 | – | –
UUUUUAUAUGAAGGAUAUACUUAACAUGAGGAUCACCCAUGUGGUGUUGUGAGUGAGUGAGUUUAGUAGAAGGUCAAGAAUUUU [JMF's solution 34] (Eterna round: R96, puzzle: Exclusion NG 2) | – | – | – | – | – | 521 | 324 | – | apparent KD of MS2 coat protein [2, 5]: 399 nM
UUUUUAUAUGAAGGAUAUACUUAACAUGAGGAUCACCCAUGUGGUGUUGUGAGUGAGUGAGUUUAGUAGAAGGUCAAUGAUUUC [JMF's solution 64] (Eterna round: R96, puzzle: Exclusion NG 2) | – | – | – | – | – | 764 | 439 | – | apparent KD of MS2 coat protein [2, 5]: 382 nM
UUUUUAUAUGAAGGAUAUACUUAACAUGAGGAUCACCCAUGUGGUGUUGUGAGUGAGUGAGUUUAGUAGAAGGUCAAUUAUCUU [JMF's solution 14] (Eterna round: R96, puzzle: Exclusion NG 2) | – | – | – | – | – | 699 | 373 | – | apparent KD of MS2 coat protein [2, 5]: 309 nM
UUUUUAUAUGAAGGAUAUACUUAACAUGAGGAUCACCCAUGUGGUGUUGUGAGUGAGUGAGUUUAGUAGAAGGUCAGUUCUUUU [JMF's solution 79] (Eterna round: R96, puzzle: Exclusion NG 2) | – | – | – | – | – | 414 | 611 | – | apparent KD of MS2 coat protein [2, 5]: 497 nM
UUUUUCGAACAAGCUUCGUACAUGAGGAUCACCCAUGUCGGUAGAUUUGAGUAGGUUUGGAUGGAAGUUCGUCUUAU [JR_SV3TOV1_Sub086] (puzzle: Sensor v3, turn-off variant 1) | – | – | – | – | – | – | – | 65.9 | apparent KD of MS2 coat protein [2, 6]: 28.2 nM; apparent KD of MS2 coat protein [2, 8]: 32.9 nM
UUUUUCGAACAAGCUUCGUACAUGAGGAUCACCCAUGUUGGUAGAUUUGAGUAGGUUUGGAUGUAAGCUCGUCUUAU [JR_SV3TOV1_Sub082] (puzzle: Sensor v3, turn-off variant 1) | – | – | – | – | – | – | – | 313 | apparent KD of MS2 coat protein [2, 6]: 98.7 nM; apparent KD of MS2 coat protein [2, 8]: 129 nM
UUUUUGUGAGGAUAUACGUAGUAGAACAAUAGUACUACUACGUAGAAGGCACAUGAGGAUCACCCAUGUUCCUC [Fiskers Ex 4 Super stable 44 mod 14] (puzzle: Exclusion 4) | – | – | – | – | – | – | – | 45.2 | –
UUUUUGUGAGGAUAUGGAAUAUCUUCUAUUUAUUAUUAAUUCCAGAAGGCACAUGAGGAUCACCCAUGUAUUUU [Ex4 - 3 - 35] (puzzle: Exclusion 4) | – | – | – | – | – | – | – | 20.7 | –
UUUUUGUUUUUGUUUUUUGACAUGAGGAUCACCCAUGUCACGAGCAGAUCUUCAUGCAAGCUUUUUGCUCGUCUUAU [Sensor v3 - Turn-off variant 1 - 39] (puzzle: Sensor v3, turn-off variant 1) | – | – | – | – | – | – | – | 46.9 | apparent KD of MS2 coat protein [2, 6]: 62.8 nM; apparent KD of MS2 coat protein [2, 8]: 83.3 nM
UUUUUUGUUGUGAGGAUAUCGUAUUUUUUUUGUUACGAGAAGGCACAUGAGGAUCACCCAUGUUUCUUGAUGUU [JR_BMOE4_Sub066] (puzzle: Brourd's mod of Exclusion 4) | – | – | – | – | – | – | – | 16.8 | –
UUUUUUGUUGUGAGGAUAUCGUUUUUGUUUUGGAUCGAGAAGGCACAUGAGGAUCACCCAUGUUUGUUGUGGUU [JR_BMOE4_Sub087] (puzzle: Brourd's mod of Exclusion 4) | – | – | – | – | – | – | – | 78.3 | –
UUUUUUUUGCGAGGAUAUGCUUUUAGUAAGUUAGCAGAAGGCGCGUUACAUAGAACCUCUUCUUACAUGAGGAUCACCCAUGUU [JR_ExcNG1_Sub035] (Eterna round: R96, puzzle: Exclusion NG 1) | – | – | – | – | – | 95.6 | 61.9 | – | apparent KD of MS2 coat protein [2, 5]: 56 nM
